T1: human sodium-dependent phosphate transporter 2B (NaPi2b) (human, UniProt O95436 1-690)
T1 sequence: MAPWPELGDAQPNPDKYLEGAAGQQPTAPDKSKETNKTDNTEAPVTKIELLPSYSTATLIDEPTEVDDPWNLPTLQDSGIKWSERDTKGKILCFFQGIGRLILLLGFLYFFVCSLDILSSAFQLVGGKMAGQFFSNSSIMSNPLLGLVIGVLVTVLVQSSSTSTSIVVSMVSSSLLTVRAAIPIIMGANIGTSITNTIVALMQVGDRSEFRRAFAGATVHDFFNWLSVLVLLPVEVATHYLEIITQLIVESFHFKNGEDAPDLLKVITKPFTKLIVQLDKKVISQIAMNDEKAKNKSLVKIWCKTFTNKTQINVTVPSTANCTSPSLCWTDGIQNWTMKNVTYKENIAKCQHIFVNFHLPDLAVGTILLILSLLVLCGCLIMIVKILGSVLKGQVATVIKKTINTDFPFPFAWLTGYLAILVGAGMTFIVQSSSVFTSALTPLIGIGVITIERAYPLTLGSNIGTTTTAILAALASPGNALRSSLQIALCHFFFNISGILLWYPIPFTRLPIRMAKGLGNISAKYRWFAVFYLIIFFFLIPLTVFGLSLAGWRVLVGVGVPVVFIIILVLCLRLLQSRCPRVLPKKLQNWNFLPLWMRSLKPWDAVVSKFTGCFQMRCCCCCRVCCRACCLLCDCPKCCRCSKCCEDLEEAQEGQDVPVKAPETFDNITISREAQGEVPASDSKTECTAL

T2: human sodium-dependent phosphate transporter 2B (NaPi2b) (human, UniProt O95436 1-690)
T2 sequence: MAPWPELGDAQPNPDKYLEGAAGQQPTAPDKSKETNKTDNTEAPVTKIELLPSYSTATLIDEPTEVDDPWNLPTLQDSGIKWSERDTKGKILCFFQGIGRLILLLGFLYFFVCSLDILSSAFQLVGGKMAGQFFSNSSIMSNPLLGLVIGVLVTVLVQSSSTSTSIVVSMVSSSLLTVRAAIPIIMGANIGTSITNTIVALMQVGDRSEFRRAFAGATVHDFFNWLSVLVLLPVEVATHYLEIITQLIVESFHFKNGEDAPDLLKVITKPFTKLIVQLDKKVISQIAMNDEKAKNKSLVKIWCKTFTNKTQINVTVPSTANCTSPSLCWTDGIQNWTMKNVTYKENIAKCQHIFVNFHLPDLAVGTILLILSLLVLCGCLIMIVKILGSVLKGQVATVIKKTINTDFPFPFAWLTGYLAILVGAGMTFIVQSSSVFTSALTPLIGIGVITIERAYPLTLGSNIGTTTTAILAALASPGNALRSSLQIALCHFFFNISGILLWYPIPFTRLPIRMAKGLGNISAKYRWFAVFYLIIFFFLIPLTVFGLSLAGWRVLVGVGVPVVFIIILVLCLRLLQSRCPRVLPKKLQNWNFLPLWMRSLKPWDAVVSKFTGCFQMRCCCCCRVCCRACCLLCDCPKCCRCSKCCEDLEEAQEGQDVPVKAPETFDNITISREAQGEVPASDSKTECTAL

B1: v38591 (humanized anti-NaPi2b antibody, H1L2, wild-type Fc) (antibody, human IgG1, kappa)
heavy: not shown
light: DVQMTQSPSSLSASVGDRVTITCRASQDVYSYLNWYQQKPGKAVKLLIYYTSRLQSGVPSRFSGSGSGTDYTLTISSLQPEDFATYYCQQYNIFPWTFGQGTKLEIKRTVAAPSVFIFPPSDEQLKSGTASVVCLLNNFYPREAKVQWKVDNALQSGNSQESVTEQDSKDSTYSLSSTLTLSKADYEKHKVYACEVTHQGLSSPVTKSFNRGEC
B2: v29456-MT-GGFG-AM-Compound 139 DAR 8 (antibody, human IgG1, kappa)
heavy: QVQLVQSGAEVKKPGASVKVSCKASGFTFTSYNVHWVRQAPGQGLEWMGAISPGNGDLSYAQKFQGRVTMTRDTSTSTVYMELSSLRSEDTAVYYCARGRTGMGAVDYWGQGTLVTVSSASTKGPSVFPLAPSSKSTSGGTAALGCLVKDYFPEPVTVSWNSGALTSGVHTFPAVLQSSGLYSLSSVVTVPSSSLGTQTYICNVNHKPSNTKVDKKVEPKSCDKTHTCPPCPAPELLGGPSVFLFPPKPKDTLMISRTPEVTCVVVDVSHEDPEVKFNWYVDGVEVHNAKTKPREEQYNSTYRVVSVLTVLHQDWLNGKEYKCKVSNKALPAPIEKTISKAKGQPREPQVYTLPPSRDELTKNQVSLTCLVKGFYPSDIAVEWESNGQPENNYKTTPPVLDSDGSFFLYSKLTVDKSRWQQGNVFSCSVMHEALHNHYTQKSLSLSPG
light: DVQMTQSPSSLSASVGDRVTITCRASQDVYSYLNWYQQKPGKAVKLLIYYTSRLQSGVPSRFSGSGSGTDYTLTISSLQPEDFATYYCQQYNIFPWTFGQGTKLEIKRTVAAPSVFIFPPSDEQLKSGTASVVCLLNNFYPREAKVQWKVDNALQSGNSQESVTEQDSKDSTYSLSSTLTLSKADYEKHKVYACEVTHQGLSSPVTKSFNRGEC
modifications: MT-GGFG-AM-Compound 139 drug-linker on reduced cysteines (maleimide); DAR 8 for the whole antibody
B3: v29456-MT-GGFG-Compound 148 DAR 8 (antibody, human IgG1, kappa)
heavy: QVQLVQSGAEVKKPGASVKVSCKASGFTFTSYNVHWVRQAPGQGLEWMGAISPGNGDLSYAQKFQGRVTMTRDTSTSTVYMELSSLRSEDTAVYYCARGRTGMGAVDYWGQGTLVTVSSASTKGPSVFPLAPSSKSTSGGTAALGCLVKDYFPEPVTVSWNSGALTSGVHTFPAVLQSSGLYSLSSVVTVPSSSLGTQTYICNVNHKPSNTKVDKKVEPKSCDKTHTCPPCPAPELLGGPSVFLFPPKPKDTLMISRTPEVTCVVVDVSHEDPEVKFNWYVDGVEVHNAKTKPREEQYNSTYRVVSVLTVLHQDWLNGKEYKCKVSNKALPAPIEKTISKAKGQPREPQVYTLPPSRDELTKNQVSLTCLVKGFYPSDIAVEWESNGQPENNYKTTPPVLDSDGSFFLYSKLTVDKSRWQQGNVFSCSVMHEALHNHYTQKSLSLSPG
light: DVQMTQSPSSLSASVGDRVTITCRASQDVYSYLNWYQQKPGKAVKLLIYYTSRLQSGVPSRFSGSGSGTDYTLTISSLQPEDFATYYCQQYNIFPWTFGQGTKLEIKRTVAAPSVFIFPPSDEQLKSGTASVVCLLNNFYPREAKVQWKVDNALQSGNSQESVTEQDSKDSTYSLSSTLTLSKADYEKHKVYACEVTHQGLSSPVTKSFNRGEC
modifications: MT-GGFG-Compound 148 drug-linker on reduced cysteines (maleimide); DAR 8 for the whole antibody
B4: v29456-MT-GGFG-AM-Compound 136 DAR 8 (antibody, human IgG1, kappa)
heavy: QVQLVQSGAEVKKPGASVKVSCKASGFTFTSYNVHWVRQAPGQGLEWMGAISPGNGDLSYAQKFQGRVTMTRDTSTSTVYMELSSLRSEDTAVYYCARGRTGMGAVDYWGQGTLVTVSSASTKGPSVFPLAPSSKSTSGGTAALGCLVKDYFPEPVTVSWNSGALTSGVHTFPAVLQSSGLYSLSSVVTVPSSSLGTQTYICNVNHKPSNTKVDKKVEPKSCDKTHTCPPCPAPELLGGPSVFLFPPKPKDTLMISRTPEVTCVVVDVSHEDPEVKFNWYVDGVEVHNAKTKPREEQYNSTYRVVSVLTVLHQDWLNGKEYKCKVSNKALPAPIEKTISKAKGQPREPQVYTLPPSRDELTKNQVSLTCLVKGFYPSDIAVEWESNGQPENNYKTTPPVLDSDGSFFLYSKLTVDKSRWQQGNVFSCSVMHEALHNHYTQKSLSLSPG
light: DVQMTQSPSSLSASVGDRVTITCRASQDVYSYLNWYQQKPGKAVKLLIYYTSRLQSGVPSRFSGSGSGTDYTLTISSLQPEDFATYYCQQYNIFPWTFGQGTKLEIKRTVAAPSVFIFPPSDEQLKSGTASVVCLLNNFYPREAKVQWKVDNALQSGNSQESVTEQDSKDSTYSLSSTLTLSKADYEKHKVYACEVTHQGLSSPVTKSFNRGEC
modifications: MT-GGFG-AM-Compound 136 drug-linker on reduced cysteines (maleimide); DAR 8 for the whole antibody
B5: v38591-MC-GGFG-AM-Compound 139 DAR 4 (antibody, human IgG1, kappa)
heavy: not shown
light: DVQMTQSPSSLSASVGDRVTITCRASQDVYSYLNWYQQKPGKAVKLLIYYTSRLQSGVPSRFSGSGSGTDYTLTISSLQPEDFATYYCQQYNIFPWTFGQGTKLEIKRTVAAPSVFIFPPSDEQLKSGTASVVCLLNNFYPREAKVQWKVDNALQSGNSQESVTEQDSKDSTYSLSSTLTLSKADYEKHKVYACEVTHQGLSSPVTKSFNRGEC
modifications: drug-linker MC-GGFG-AM-Compound 139 conjugated by maleimide after TCEP reduction; DAR 4 for the whole antibody; sites not stated
B6: v29456-MT-GGFG-AM-Compound 129 DAR 8 (antibody, human IgG1, kappa)
heavy: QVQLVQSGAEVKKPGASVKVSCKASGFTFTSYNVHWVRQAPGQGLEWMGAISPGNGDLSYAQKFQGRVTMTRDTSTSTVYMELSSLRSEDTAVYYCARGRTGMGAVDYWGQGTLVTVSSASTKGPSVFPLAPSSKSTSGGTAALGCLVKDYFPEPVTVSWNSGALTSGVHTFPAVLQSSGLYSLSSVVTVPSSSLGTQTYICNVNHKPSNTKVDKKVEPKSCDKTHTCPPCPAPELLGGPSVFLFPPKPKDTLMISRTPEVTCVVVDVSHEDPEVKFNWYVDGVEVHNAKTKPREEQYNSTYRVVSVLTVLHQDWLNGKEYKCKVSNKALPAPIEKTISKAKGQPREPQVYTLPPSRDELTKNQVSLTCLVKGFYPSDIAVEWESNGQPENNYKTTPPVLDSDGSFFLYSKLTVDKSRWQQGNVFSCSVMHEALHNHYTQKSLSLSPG
light: DVQMTQSPSSLSASVGDRVTITCRASQDVYSYLNWYQQKPGKAVKLLIYYTSRLQSGVPSRFSGSGSGTDYTLTISSLQPEDFATYYCQQYNIFPWTFGQGTKLEIKRTVAAPSVFIFPPSDEQLKSGTASVVCLLNNFYPREAKVQWKVDNALQSGNSQESVTEQDSKDSTYSLSSTLTLSKADYEKHKVYACEVTHQGLSSPVTKSFNRGEC
modifications: MT-GGFG-AM-Compound 129 drug-linker on reduced cysteines (maleimide); DAR 8 for the whole antibody
B7: v40502-MC-GGFG-AM-Compound 139 DAR 4 (antibody, human IgG1, kappa, L234A L235A)
heavy: not shown
light: DVQMTQSPSSLSASVGDRVTITCRASQDVYSYLNWYQQKPGKAVKLLIYYTSRLQSGVPSRFSGSGSGTDYTLTISSLQPEDFATYYCQQYNIFPWTFGQGTKLEIKRTVAAPSVFIFPPSDEQLKSGTASVVCLLNNFYPREAKVQWKVDNALQSGNSQESVTEQDSKDSTYSLSSTLTLSKADYEKHKVYACEVTHQGLSSPVTKSFNRGEC
modifications: drug-linker MC-GGFG-AM-Compound 139 conjugated by maleimide after TCEP reduction; DAR 4 for the whole antibody (printed 3.3 in Table 45.1); sites not stated
B8: v40502 (LALADS) anti-NaPi2b antibody (antibody, human IgG1, kappa, L234A L235A)
heavy: not shown
light: DVQMTQSPSSLSASVGDRVTITCRASQDVYSYLNWYQQKPGKAVKLLIYYTSRLQSGVPSRFSGSGSGTDYTLTISSLQPEDFATYYCQQYNIFPWTFGQGTKLEIKRTVAAPSVFIFPPSDEQLKSGTASVVCLLNNFYPREAKVQWKVDNALQSGNSQESVTEQDSKDSTYSLSSTLTLSKADYEKHKVYACEVTHQGLSSPVTKSFNRGEC
B9: v21995 (palivizumab, anti-RSV antibody) (antibody, human IgG1, kappa, V domains shown)
VH: QVTLRESGPALVKPTQTLTLTCTFSGFSLSTSGMSVGWIRQPPGKALEWLADIWWDDKKDYNPSLKSRLTISKDTSKNQVVLKVTNMDPADTATYYCARSMITNWYFDVWGAGTTVTVSS
VL: DIQMTQSPSTLSASVGDRVTITCKSQLSVGYMHWYQQKPGKAPKLLIYDTSKLASGVPSRFSGSGSGTEFTLTISSLQPDDFATYYCFQGSGYPFTFGGGTKLEIKR
B10: v18993-MCvc-PABC-MMAE (lifastuzumab vedotin) (antibody, human IgG1, kappa)
heavy 1: GEVQLVESGGGLVQPGGSLRLSCAASGFSFSDFAMSWVRQAPGKGLEWVATIGRVAFHTYYPDSMKGRFTISRDNSKNTLYLQMNSLRAEDTAVYYCARHRGFDVGHFDFWGQGTLVTVSSASTKGPSVFPLAPSSKSTSGGTAALGCLVKDYFPEPVTVSWNSGALTSGVHTFPAVLQSSGLYSLSSVVTVPSSSLGTQTYICNVNHKPSNTKVDKKVEPKSCDKTHTCPPCPAPELLGGPSVFLFPPKPKDTLMISRTPEVTCVVVDVSHEDPEVKFNWYVDGVEVHNAKTKPREEQYNSTYRVVSVLTVLHQDWLNGKEYKCKVSNKALPAPIEKTISKAKGQPREPQVYVYPPSRDELTKNQVSLTCLVKGFYPSDIAVEWESNGQPENNYKTTPPVLDSDGSFALVSKLTVDKSRWQQGNVFSCSVMHEALHNHYTQKSLSLSPG
heavy 2: not shown
light: GDIQMTQSPSSLSASVGDRVTITCRSSETLVHSSGNTYLEWYQQKPGKAPKLLIYRVSNRFSGVPSRFSGSGSGTDFTLTISSLQPEDFATYYCFQGSFNPLTFGQGTKVEIKRTVAAPSVFIFPPSDEQLKSGTASVVCLLNNFYPREAKVQWKVDNALQSGNSQESVTEQDSKDSTYSLSSTLTLSKADYEKHKVYACEVTHQGLSSPVTKSFNRGEC
modifications: drug-linker MCvc-PABC-MMAE; DAR 4.1 for the whole antibody; sites not stated

Tests used:
Assay in all cases: cell-based or functional assay
[1] = biological target: T1, human sodium-dependent phosphate …
[2] = biological target: T1, human sodium-dependent phosphate …; remark: listed apart in the source
[3] = biological target: T2, human sodium-dependent phosphate …; remark: listed apart in the source
[4] = biological target: T2, human sodium-dependent phosphate …; remark: listed apart in the source

Binder | Internalized Fluorescence Fold-Over Untreated, H441, 4 hours, 2.5 nM [1] [fold] | Internalized Fluorescence Fold-Over Untreated, H441, 24 hours, 2.5 nM [1] [fold] | Internalized Fluorescence Fold-Over Untreated, HCC-78, 4 hours, 2.5 nM [1] [fold] | Internalized Fluorescence Fold-Over Untreated, HCC-78, 24 hours, 2.5 nM [1] [fold] | Internalized Fluorescence Fold-Over Untreated, IGROV-1, 4 hours, 2.5 nM [1] [fold] | Internalized Fluorescence Fold-Over Untreated, IGROV-1, 24 hours, 2.5 nM [1] [fold] | EC50 (nM), in vitro cytotoxicity, H441 Spheroids [2] [nM] | EC50 (nM), in vitro cytotoxicity, H1781 Spheroids [2] [nM] | EC50 of cytotoxicity, HCC-78 3D spheroids, 6 days, CellTiter-Glo 3D [3] [nM] | EC50 of cytotoxicity, IGROV-1 3D spheroids, 6 days, CellTiter-Glo 3D [3] [nM] | EC50 of cytotoxicity, 2D monolayer, HCC-78 cells, 4 days, CellTiter-Glo [4] [nM] | EC50 of cytotoxicity, 2D monolayer, IGROV-1 cells, 4 days, CellTiter-Glo [4] [nM]
B1 | 1.2 | 1.9 | 5.7 | 35 | 7.2 | 26 | > 200 | > 200 |  |  |  | 
B2 |  |  |  |  |  |  |  |  | 0.82 | 0.37 | 0.65 | 1.71
B3 |  |  |  |  |  |  |  |  |  |  | 1.98 | 
B4 |  |  |  |  |  |  |  |  |  |  | 0.43 | 4.48
B5 | 1.2 | 2 | 5.6 | 35.9 | 7.1 | 26.6 | 9.85 | 0.95 |  |  |  | 
B6 |  |  |  |  |  |  |  |  |  |  | 0.42 | 1.11
B7 | 1.2 | 1.9 | 5.3 | 36.5 | 6.8 | 25.4 | 7.57 | 1.15 |  |  |  | 
B8 | 1.2 | 1.9 | 5.5 | 35.5 | 7 | 25.3 | > 200 | > 200 |  |  |  | 
B9 | 1 | 1.1 | 1 | 1.1 | 0.9 | 1 |  |  |  |  |  | 
B10 |  |  |  |  |  |  | 11.4 | 7.94 |  |  |  | 

From patent US20250235548A1 (Zymeworks, published 2025)
